Blank lines part the entries; values can stand above or below the binder they belong to.
Columns and labels:
[1] = biological target: T1, human B7-H4 expressed on cells (CHOK-1 B7-H4, SK-BR3, CAMA-1, MDA-MB-468, MX-1, OVCAR-3) (human, UniProt Q7Z7D3 25-282); test: FACS on SK-BR3 cells, 100 nM antibody, FITC anti-mouse IgG Fc detection (FL1-H)
T1 construct: whole, on cells; also called B7-H4 expressed cell line; B7-H4 positive cancer cell lines
T1 sequence (looked up): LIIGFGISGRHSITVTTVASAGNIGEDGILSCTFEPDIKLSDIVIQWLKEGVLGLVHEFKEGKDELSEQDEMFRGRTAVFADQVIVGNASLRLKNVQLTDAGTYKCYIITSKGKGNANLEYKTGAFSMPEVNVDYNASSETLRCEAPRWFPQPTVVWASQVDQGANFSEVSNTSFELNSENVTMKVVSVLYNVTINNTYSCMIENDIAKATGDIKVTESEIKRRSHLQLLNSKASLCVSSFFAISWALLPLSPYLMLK
Experimental: (§1) To evaluate the antigen binding property, the mouse antibody candidates generated according to Preparation Example 1-1 were analyzed for their bindings to B7-H4 expressed cells (SK-BR3, CAMA-1 and MDA-MB-468) or B7-H4 negative expressed cell (PANC-1). Briefly, each cells were treated with the 100 nM of indicated antibodies at 4° C. for 1 hr. After washing by FACS buffer (1% BSA in PBS), Cells were incubated with the FITC anti-mouse IgG Fc antibody at 4° C. for 1 hr and then subjected to FACS analysis. As shown FIG. 1, anti-B7-H4 mouse antibodies bound to B7-H4 expressed SK-BR3, CAMA-1 and MDA-MB-468 cell lines but not B7-H4 negative PANC-1. […] Based on the ranking results, 16E3H3 clone was selected for humanization.

[2] = biological target: T1, human B7-H4 expressed on cells (CHOK-1 …); test: FACS on CAMA-1 cells, 100 nM antibody, FITC anti-mouse IgG Fc detection (FL1-H)
Experimental: as §1

[3] = biological target: T1, human B7-H4 expressed on cells (CHOK-1 …); test: FACS on MDA-MB-468 cells, 100 nM antibody, FITC anti-mouse IgG Fc detection (FL1-H)
Experimental: as §1

[4] = biological target: 4-1BB on GloResponse NFκB-luc2/4-1BB Jurkat cells (UniProt Q07011 24-255, limits assumed); test: cell-based or functional assay
[5] = biological target: T2, Recombinant B7-H4 (Monkey) protein (Monkey); test: SPR, antibody captured on Protein A chip, B7-H4 100 nM to 6.25 nM as analyte
T2 construct: also called monkey B7-H4
Experimental: (§2) In the SPR experiment, the anti-B7-H4/anti-4-1BB bispecific antibody obtained in Preparation Example 3 was captured on flow-cells 2, 3 and 4, keeping the flow-cell 1 as reference, on a Protein A Chip on which an anti-B7-H4/anti-4-1BB Bispecific antibody (B10317) has been immobilized by amine coupling. Recombinant B7-H4 (Human/Monkey) or 4-1BB (Human/Monkey) protein was flowed across the chip at concentration range from 100 nM to 6.25 nM for B7-H4 or 250 nM to 15.625 nM for 4-1BB at 30 μl/min for 60 seconds, followed by a dissociation phase of 180 seconds. Regeneration was performed with 10 mM Glycine-HCl (pH 1.5).

[6] = biological target: T3, recombinant human B7-H4 (human, UniProt Q7Z7D3 29-258, limits assumed); test: as above
T3 construct: also called Recombinant B7-H4 (Human)
T3 sequence (looked up): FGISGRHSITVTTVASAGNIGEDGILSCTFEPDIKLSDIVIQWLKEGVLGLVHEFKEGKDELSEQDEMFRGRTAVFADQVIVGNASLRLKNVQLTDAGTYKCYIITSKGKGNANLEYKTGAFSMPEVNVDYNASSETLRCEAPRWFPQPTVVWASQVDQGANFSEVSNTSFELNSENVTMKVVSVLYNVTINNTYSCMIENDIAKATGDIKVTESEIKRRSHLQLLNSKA
Experimental: as §2

[7] = biological target: T4, Recombinant 4-1BB (Monkey) protein (Monkey); test: SPR, antibody captured on Protein A chip, 4-1BB 250 nM to 15.625 nM as analyte
T4 construct: also called monkey 4-1BB
Experimental: as §2

[8] = biological target: T5, B7-2; test: ELISA on plate-coated B7-2 (100 ng/well), three-fold dilutions of B10317 from 100 nM
T5 construct: one of the 'other B7-family proteins'; Commonly known as CD86
T5 chain: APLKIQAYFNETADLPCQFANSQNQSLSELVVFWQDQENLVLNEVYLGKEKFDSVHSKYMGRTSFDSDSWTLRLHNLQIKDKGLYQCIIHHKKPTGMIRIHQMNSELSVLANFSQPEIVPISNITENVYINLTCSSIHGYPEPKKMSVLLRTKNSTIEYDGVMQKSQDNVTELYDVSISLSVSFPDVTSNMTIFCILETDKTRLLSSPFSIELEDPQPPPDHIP
Experimental: (§3) To confirm the specific binding of anti-B7-H4/anti-4-1BB bispecific antibody against B7-H4, B10317 subjected to ELISA test. Microtiter plates were coated with each protein (100 ng/well) at 4° C. overnight, then blocked with 200 μl/well PBSB (1% (w/v) BSA in PBS). Three-fold dilutions of B10317 starting from 100 nM was added to each well and incubated at 37° C. for 1 hours. The plates were washed with PBST (0.05% (v/v) Tween20 in PBS) and then incubate for 1 hours at 37° C. with 100 ul of Anti-Fc HRP (Dilution factor, 1:30000) or Anti-Fab HRP (Dilution factor, 1:20000). The plates were washed with PBST (0.05% (v/v) Tween20 in PBS) and then the plates were developed with TMB substrate and analyzed by spectrophotometer at 450-650 nm.

[9] = biological target: T1, human B7-H4 expressed on cells (CHOK-1 …); test: FACS on MX-1 cells, FITC anti-human IgG detection; table under the graph prints no unit, x axis is Ab, Log[nM]
Experimental: (§4) To evaluate the tumor antigen binding property, B10317 bispecific antibody was analyzed for its binding to B7-H4-expressing mammalian cells by FACS. Briefly, B7-H4 positive cells (MX-1 and CAMA-1) were incubated with B10317 antibodies. After wash by FACS buffer (1% BSA in PBS), the FITC-anti-human IgG antibody was added to each well and incubated at 4° C. for 45 min. The MFI of FITC was evaluated by FACS Calibur.

[10] = biological target: T1, human B7-H4 expressed on cells (CHOK-1 …); test: FACS on CAMA-1 cells, FITC anti-human IgG detection; table under the graph prints no unit, x axis is Ab, Log[nM]
Experimental: as §4

[11] = biological target: T6, B7-H2; test: ELISA on plate-coated B7-H2 (100 ng/well), three-fold dilutions of B10317 from 100 nM
T6 construct: one of the 'other B7-family proteins'; Commonly known as ICOS ligand
T6 chain: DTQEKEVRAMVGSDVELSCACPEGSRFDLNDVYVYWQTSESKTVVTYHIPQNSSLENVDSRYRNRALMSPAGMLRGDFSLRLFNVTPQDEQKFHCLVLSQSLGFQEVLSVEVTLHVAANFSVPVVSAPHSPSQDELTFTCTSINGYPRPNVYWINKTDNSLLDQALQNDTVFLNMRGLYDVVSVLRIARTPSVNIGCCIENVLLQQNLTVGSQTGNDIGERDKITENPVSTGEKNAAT
Experimental: as §3

[12] = biological target: T7, B7-1; test: ELISA on plate-coated B7-1 (100 ng/well), three-fold dilutions of B10317 from 100 nM
T7 construct: one of the 'other B7-family proteins'; Commonly known as CD80
T7 chain: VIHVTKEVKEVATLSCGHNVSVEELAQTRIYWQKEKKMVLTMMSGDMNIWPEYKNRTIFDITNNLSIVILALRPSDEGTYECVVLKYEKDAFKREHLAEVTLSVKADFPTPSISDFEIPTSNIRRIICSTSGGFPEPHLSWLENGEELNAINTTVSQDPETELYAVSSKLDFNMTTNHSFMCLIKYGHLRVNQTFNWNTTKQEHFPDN
Experimental: as §3

[13] = biological target: T8, B7-H6; test: ELISA on plate-coated B7-H6 (100 ng/well), three-fold dilutions of B10317 from 100 nM
T8 construct: one of the 'other B7-family proteins'; Commonly known as NCR3LG1
T8 chain: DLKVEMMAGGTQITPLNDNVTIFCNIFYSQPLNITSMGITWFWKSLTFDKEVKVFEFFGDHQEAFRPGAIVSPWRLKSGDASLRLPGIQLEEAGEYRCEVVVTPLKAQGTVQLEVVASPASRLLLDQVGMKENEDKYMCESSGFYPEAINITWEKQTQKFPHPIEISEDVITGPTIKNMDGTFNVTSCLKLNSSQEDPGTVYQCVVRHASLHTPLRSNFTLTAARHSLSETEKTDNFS
Experimental: as §3

Sequence of 4-1BB on GloResponse NFκB-luc2/4-1BB Jurkat cells (Q07011 24-255 limits assumed): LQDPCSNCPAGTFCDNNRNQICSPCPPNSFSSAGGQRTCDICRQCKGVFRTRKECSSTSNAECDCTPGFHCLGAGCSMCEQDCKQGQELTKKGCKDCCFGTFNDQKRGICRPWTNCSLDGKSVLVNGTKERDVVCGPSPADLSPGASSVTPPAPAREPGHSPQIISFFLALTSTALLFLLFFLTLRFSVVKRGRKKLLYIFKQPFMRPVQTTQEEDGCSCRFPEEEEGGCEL

B1: 73B4F10 (mouse monoclonal anti-B7-H4 antibody) (antibody, V domains shown)
VH: QVQLQQPGTELVKPGASVKLSCKASGYTFTSYWMHWVKQRPGQGLERIGHINPSNGGTNYNEKFKKKATLTVDKSSSTAYMQLSSLTSEDSAVYYCARSEFYYGTVFAYWGQGTLVTVSA
VL: DVLMTQTPLSLPVSLGDQASISCRSSQSIVHGNGNTYLEWYLQKPGQSPKLLIYKVSNRFSGVPDRFSGSGSGTDFTLKISRVEAEDLGVYYCFQGSHDPPTFGGGTKLEIK
notes: Mouse hybridoma antibody, detected with anti-mouse IgG Fc; also called 73B4F10 (from mouse)
MFI [1]: 5.95
MFI [2]: 29
MFI [3]: 20.1

B3: 23B6C2 (mouse monoclonal anti-B7-H4 antibody) (antibody, V domains shown)
VH: QVTLKESGPGILQPSQTLSLTCSFSGFSLSTFGMGVGWIRQPSGKGLEWLAHIWWDDDKYYNSALKSRLTISKETSKNQIFLKIANVDTTDTATYYCVRKDYYGYRGFAYWGQGTLVTVSA
VL: QLVLTQSSSASFSLGASAKLTCTLSSQHTTYTIEWYQQQPLKPPKYVMELKKDGSHSTGDGIPDRFSGSSSGADRYLCISNIQPEDEAIYICGVGDTIKEQFVYVFGGGTKVTVL
notes: Mouse hybridoma antibody, detected with anti-mouse IgG Fc; also called 23B6C2 (from mouse)
MFI [1]: 7.85
MFI [2]: 47.4
MFI [3]: 22

Further lines, results first:

EC50 (nM) [NF-kB assay], with B-CAG-hB7-H4 MC38 cells [4]: 0.093 nM
EC50 (nM) [NF-kB assay], with CAMA-1 cells [4]: 0.145 nM
EC50 (nM) [NF-kB assay], with HCC1954 cells [4]: 0.647 nM
EC50 (nM) [NF-kB assay], with MDA-MB-468 cells [4]: 0.403 nM
EC50 (nM) [NF-kB assay], with MX-1 cells [4]: 0.184 nM
EC50 (nM) [NF-kB assay], with OVCAR3 cells [4]: 0.288 nM
EC50 (nM) [NF-kB assay], with SK-BR3 cells [4]: 0.234 nM
Fold of Induction [NF-kB assay], with B-CAG-hB7-H4 MC38 cells [4]: 76.1 fold
Fold of Induction [NF-kB assay], with CAMA-1 cells [4]: 44.3 fold
Fold of Induction [NF-kB assay], with CHOK1 cells (B7-H4 negative) [4]: 1.49 fold
Fold of Induction [NF-kB assay], with HCC1954 cells [4]: 3.01 fold
Fold of Induction [NF-kB assay], with MC38 cells (B7-H4 negative) [4]: 2.32 fold
Fold of Induction [NF-kB assay], with MDA-MB-468 cells [4]: 6.74 fold
Fold of Induction [NF-kB assay], with MX-1 cells [4]: 62.9 fold
Fold of Induction [NF-kB assay], with OVCAR3 cells [4]: 5.02 fold
Fold of Induction [NF-kB assay], with PANC1 cells (B7-H4 negative) [4]: 1.11 fold
Fold of Induction [NF-kB assay], with SK-BR3 cells [4]: 30.8 fold
Kd [5]: 4.53 nM
koff [5]: 0.00278 s⁻¹
kon [5]: 614000 M⁻¹ s⁻¹
Kd [6]: 4.36 nM
koff [6]: 0.00225 s⁻¹
kon [6]: 517000 M⁻¹ s⁻¹
Kd [7]: 4.01 nM
koff [7]: 0.000899 s⁻¹
kon [7]: 224000 M⁻¹ s⁻¹
binding result [8]: no binding (tested: 100 nM)
EC50 [9]: 10.3 nM
EC50 [10]: 6.46 nM
binding result [11]: no binding (tested: 100 nM)
binding result [12]: no binding (tested: 100 nM)
binding result [13]: no binding (tested: 100 nM)
B2: 16E3H3 M1 x 1A10 M12 anti-B7-H4/anti-4-1BB bispecific antibody (bispecific antibody, human IgG1, kappa, N297A)
heavy: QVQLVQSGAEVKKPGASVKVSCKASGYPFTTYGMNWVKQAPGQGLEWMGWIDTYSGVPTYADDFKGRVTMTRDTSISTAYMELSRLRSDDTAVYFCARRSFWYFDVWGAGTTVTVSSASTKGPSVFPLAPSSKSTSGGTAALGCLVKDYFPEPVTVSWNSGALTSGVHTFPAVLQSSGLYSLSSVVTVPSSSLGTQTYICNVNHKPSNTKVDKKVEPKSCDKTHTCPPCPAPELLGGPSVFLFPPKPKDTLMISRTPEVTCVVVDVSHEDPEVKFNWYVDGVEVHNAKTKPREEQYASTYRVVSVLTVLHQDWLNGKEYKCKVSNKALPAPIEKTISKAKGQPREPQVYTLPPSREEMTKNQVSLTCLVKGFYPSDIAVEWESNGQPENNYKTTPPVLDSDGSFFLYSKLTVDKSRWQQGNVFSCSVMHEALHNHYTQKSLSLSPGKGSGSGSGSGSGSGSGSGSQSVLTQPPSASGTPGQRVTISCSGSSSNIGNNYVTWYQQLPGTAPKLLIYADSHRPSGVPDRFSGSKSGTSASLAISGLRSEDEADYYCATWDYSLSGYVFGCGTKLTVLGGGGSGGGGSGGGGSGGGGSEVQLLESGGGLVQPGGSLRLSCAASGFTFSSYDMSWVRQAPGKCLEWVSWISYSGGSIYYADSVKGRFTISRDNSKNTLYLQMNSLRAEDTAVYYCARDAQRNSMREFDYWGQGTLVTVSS
light: DVVMTQSPLSLPVTLGQPASISCRSSQSLVHSNANTYLHWYLQRPGQSPRLLIYKVSNRFSGVPDRFSGSGSGTDFTLKISRVEAEDVGVYFCSQSTHVPWTFGGGTKVEIKRTVAAPSVFIFPPSDEQLKSGTASVVCLLNNFYPREAKVQWKVDNALQSGNSQESVTEQDSKDSTYSLSSTLTLSKADYEKHKVYACEVTHQGLSSPVTKSFNRGEC
notes: IgG-scFv format: anti-B7-H4 IgG1 (N297A) heavy chain, (GS)9 linker, anti-4-1BB scFv 1A10 M12 (VL-(GGGGS)4-VH) at the C-terminus; also called B10317; 16E3H3 M1×1A10M12

MFI [1]: 25.3
MFI [2]: 463
MFI [3]: 77.6
B4: 16E3H3 (mouse monoclonal anti-B7-H4 antibody) (antibody, V domains shown)
VH: QIQLVHSGPELKKPGETVKISCKASGYPFTTYGMNWVKQAPGKGLKWMGWIDTYSGVPTYADDFKGRFAFSLETSASTAYLQINNLKNEDTATYFCARRSFWYFDVWGTGTTVTVSS
VL: DVVMTQTPLSLPVSLGDQASISCRSSQSLVHSNGNTYLHWYLQKPGQSPKLLIYKVSNRFSGVPDRFSGSGSGTDFTLKIRRVEAEDLGVYFCSQSTHVPWTFGGGTKLEIK
notes: Mouse hybridoma antibody, detected with anti-mouse IgG Fc; also called 16E3H3 (from mouse); 16E3H3 clone
